This is an account of results in patent publication US20150160214A1, “Quantitation of Cellular Adhesion Dynamics Across Immobilized Receptors Under Rheological Shear Flow” (Mayo Foundation for Medical Education and Research, priority 2013, published 2015).

In data set [1] the test system is platelet GP1bα. Briefly: Platelet pause times and translocation velocities on immobilized A1 under shear flow, parallel-plate flow chamber (Example 1). The settings on record: 5 μM protein immobilized; as a function of shear rate. Type of data set: cell-based, human. The source says: (§1) To understand the effect of the N-terminal peptide on the function of the A1-domain of vWF, the protein was expressed with (A1-1238) and without the N-terminal peptide (A1-1261). The inventor used a flow chamber to measure the dynamics of platelet interactions with A1-1238 and A1-1261. Each domain variant was immobilized on glass slides with a modified Cu^2+ chelating chemistry that enabled surface capture via the N-terminally fused histidine tag. This method ensured reproducible capture of the proteins eliminating possible structural issues associated with nonspecific immobilization on plastic or glass. The slides were completely inert to platelets. Next, 1 mL of citrated whole blood followed by Tris buffered saline was perfused at low shear to enable platelets to attach to the surface immobilized domains. After red cells were perfused away with buffer, the translocation of the remaining attached platelets over the surfaces was recorded at each shear rate and the velocities and pause times calculated from the coordinate data of each platelet on the surface as described in the methods. […] In addition, the translocation velocities were increased for A1-1238 relative to A1-1261. To determine if this N-terminal sequence could inhibit the catch bond when free in solution, the inventor incubated surface immobilized A1-1261 with excess free peptide and added the free peptide to 1 mL of whole blood and to our perfusion buffer and performed the assay.
(§2) Determination of platelet pause times. Determination of platelet pause times A Glycotech† rectangular parallel-plate flow chamber was mounted to slides with a chelated Cu 21 surface obtained from Microsurfaces Inc. # to which the A1-1261 and A1-1238 domains in TBS were immobilized by the 63His-Tag. Citrated whole blood (1 mL) obtained from informed consent of healthy donors with approval from the Baylor College of Medicine institutional review board followed by buffer was perfused through the chamber at 300s21 for A1-1261 and 700s21 for A1-1238 shear rate to attach platelets to the surface immobilized proteins using a syringe driven variable flow rate pump. The shear was increased incrementally and 1 min movies were recorded at 25 frames/s in phase contrast with 232 pixel binning on a Zeiss Axiocam MRm camera attached to a Zeiss Axio Observer D1 inverted microscope. Tracking analysis was performed using Mediacybernetics ImagePro Premier§. The resulting X-Y coordinate data for each platelet track was differentiated into instantaneous velocities using a Savitzky-Golay algorithm (Savitzky:1964) with a five data point window size and a second-order polynomial implemented into a Mathamatica notebook. These platelet tracks were retained for statistical analysis if the platelet was present for at least 1 s and travelled a total distance greater than 1 lm. Distance travelled in pixels was converted to lm given the camera pixel size=6.45 μm^2, pixel binning, and microscope magnification=400×. Pause times were determined by the amount of time (seconds) a platelets velocity was =0±0.13 μm/s, within the noise. Pause times for all platelet tracks are reported as the mean of the medians. Examples of this analysis for individual platelets and for multiple platelets are provided in the Supporting Information.
(§3) Frame by frame platelet trajectory analysis. Tracking coordinates of individual platelets in units of pixels were exported from ImagePro Premier as a text file and imported into a Mathematica notebook that calculates a Savitzky-Golay first derivative of the total distance traveled over time (Savitzky:1964). The distance was calculated from the X and Y coordinates with the following equation.
(§4) Pause times were determined from the length of time the platelet velocity remained within 0±4 pixel/sec=0.129 μm/sec as illustrated in FIG. 8B. Median pause times were calculated from velocity time profiles for all platelet tracks, stored in a list and translated to histograms for multiple platelets. […]

The target in another data set is T1, A1-1261 (Homo sapiens, UniProt P04275).
T1 construct: A1-1261 (amino acids D1261-P1471); made in house
The data set can be described thus: Binding of free N-terminal peptide to A1-1261 from thermal unfolding enthalpy (tryptophan fluorescence). The settings on record: for Apparent TM of primary transition / Enthalpy of the unfolding transition ΔHT*‡: 2° Celsius/min. An excerpt: (§5) This would imply a specific interaction between this N-terminal sequence and the A1 domain when covalently linked in sequence. The only way to examine such a stabilization using spectroscopy was the measurement of thermal unfolding via fluorescence. Since the N-terminal peptide also contains a single tyrosine residue, the excitation wavelength was changed to λ=295 nm in order to measure tryptophan fluorescence and the effect of the peptide on the unfolding of the A1-domain was observed indirectly. Thermal scans of 2 μM A1-1261 were performed as a function of increasing amounts of the N-terminal peptide at 2° Celsius/min. […] Thermal scans were also done in the presence of a peptide with the same amino acid composition, but a scrambled sequence. The inset of FIG. 7A compares the raw fluorescence thermal scans in the presence of 300 μM scrambled and N-terminal peptides. Unfolding in the presence of excess scrambled peptide was equivalent to unfolding in the absence of either peptide. […] Fitting the enthalpy data to a simple single site binding model yields a dissociation constant of ≈46±6 μM.
(§6) Prior to all spectroscopic thermal scans, protein samples were equilibrated at 10° Celsius for 15 min to obtain a stable baseline. CD thermal scans between 10 and 95° Celsius were recorded at λ=222 nm using a protein concentration of 1 or 2 μM in a 1 cm quartz cell under moderate stirring. Scan rates were 0.5, 1.0, 1.5 and 2.0° Celsius/min. Integration time for each data point was 20 s with a 1 nm bandwidth. Fluorescence thermal scans between 10 and 95 Celsius were recorded at an emission λ=359 nm after excitation λ=280 nm or λ=295 nm using 2 μM protein in a 1 cm quartz cell with moderate stirring. Scan rates were 0.4 or 0.6, 0.9, 1.6 and 2.0° Celsius/min. At each temperature, relative fluorescence intensity was collected for 4 s and averaged. Thermal scans in the presence of N-terminal peptide at 2.0° Celsius/min were preceded by 1 h incubations at 20° Celsius with 0.02-300 μM peptide.
For the thermal unfolding studies in the presence of peptide, the inventor treated the change in enthalpy of unfolding, ΔHT*^‡ as an observable directly proportional to the degree of binding, X, because the T* was not dependent on peptide concentration.
For the simple single site binding model, A1+P<->A1P, where P is the peptide, the degree of binding is given by
where K is the binding affinity and the free peptide, [P], concentration is given in terms of the total protein, A1T, and peptide, PT, concentrations.

A short description of data set [2]: Temperature-induced unfolding by fluorescence and CD, irreversible models (Example 1). Type of data set: physicochemical. The procedure: A1-1261 and A1-1238 were thermally unfolded using intrinsic protein tyrosine and tryptophan fluorescence with an excitation λ=280 nm and emission λ=359 nm and CD monitored at λ=222 nm. […] As the scan rate increases, the midpoint of the transition (apparent TM) also increases.
Thermal transitions were analyzed in terms of the observed midpoint of the transition, apparent TM, and also by a two-state irreversible model or a three-state irreversible model as described in the Supplement and the calculated parameters are summarized in FIGS. 5A to 5D. […] If the protein unfolding was at equilibrium and reversible, this apparent TM would remain constant at all scan rates. Extrapolation of the TM to a scan rate of 0° Celsius/min provides an indication of where reversible unfolding would occur under equilibrium conditions; 50° Celsius for A1-1238 and 48° Celsius for A1-1261 from both CD and fluorescence data. For the second transition observed by fluorescence that occurs with A1-1238, the TM extrapolates to about 73° Celsius in the limit of zero scan rate. Analysis by the two-state and three-state irreversible models yields an R^2>0.99 for both fluorescence and CD and a transition temperature, T*, that is independent of the temperature scan rate. In addition, the enthalpies of the transitions are independent of scan rate within experimental error FIG. 5B. FIGS. 5C and 5D show the resulting average T* and ΔHT*^‡±the standard deviation obtained from the fitting of the primary thermal transitions in FIG. 4A to 4D for CD and fluorescence and a total average for both methods. […] However, the unfolding enthalpy was statistically larger for A1-1238 (250±15 kJ/mol) than for A1-1261 (204±10 kJ/mol). The average T* and ΔHT*^‡ observed in the second fluorescence transition of A1-1238 is 89.1±2.2° Celsius and 360±14 kJ/mol.
as §6
For an irreversible two-state transition, unfolding is kinetically controlled by a first order rate constant that varies with temperature according to the Arrhenius equation (Atkins:1994). In our analysis the inventor refers to the intermediate state as the final irreversible state for all thermal transitions involving the unfolding of A1-1261 in the absence of peptide when monitored by fluoresence, CD and DSC and for A1-1238 when monitored by CD and DSC. The following equations derived below are equally valid for any two state irreversible transitions The activation energy in going from N->I is ΔG^‡=−RT ln k^‡ and the inventor expands ln k^‡ as a function of temperature in terms of Δβ=(β−β*)=(1/RT−1/RT*) using a Taylor series, where T̂* is the temperature at which ΔG^‡=0.

For data set [3], the target named is T2, platelet GP1bα (Homo sapiens).
T2 construct: perfused at low shear to enable platelets to attach to the surface immobilized domains; endogenous in cells; host or cells: platelets in citrated whole blood of healthy donors
The data set can be described thus: Platelet pause times and translocation velocities on immobilized A1 under shear flow, parallel-plate flow chamber (Example 1). Format: cell-based. To be noted: 300 μM peptide incubated with immobilized A1-1261; 66 μM in whole blood and buffer.
Text: as §1, §2, §3, §4

Data set [4] has as its target T3, platelet GP1bα (Homo sapiens, UniProt P04275).
T3 construct: perfused at low shear to enable platelets to attach to the surface immobilized domains; endogenous in cells; host or cells: platelets in citrated whole blood of healthy donors
Described as above. Type of data set: cell-based. To be noted: free peptide added.
Text: as §1, §2, §3, §4

In data set [5] the target is T4, Recombinant human vWF A1-1261 (amino acids D1261-P1471), N-terminal truncated variant (human, UniProt P04275 1261-1471).
T4 construct: Lacks the linker residues Q1238-E1260; also called truncated A1
Briefly: thermal unfolding of 2 µM A1-1261, tryptophan fluorescence at 359 nm (excitation 295 nm).
Text: as §5, with “indirectly.” for “indirectly. Thermal scans of 2 μM A1-1261 were performed as a function of increasing amounts of the N-terminal peptide at 2° Celsius/min.”

Setting [6] is: A1-1261 in presence of free N-terminal peptide.

For the molecule “A1-1261: N-terminal truncated recombinant human vWF A1 domain, amino acids D1261-P1471, with N-terminal 6×His-Tag”, in the data set with platelet GP1bα [1], the “Platelet pause times on immobilized domain (comparison)” value is “longer pause times than A1-1238”. Besides, the “Apparent TM of primary transition” value with A1-1261 (2 μM A1-1261, absence of peptide, excitation 295 nm) was found to be 53 ° Celsius; with A1-1261 (2 μM A1-1261, saturating concentrations of N-terminal peptide), 55.5 ° Celsius. Besides, the “Enthalpy of the unfolding transition ΔHT*‡” value with A1-1261 (2 μM A1-1261, low end of N-terminal peptide titration) is given as “≈ 197 kJ/mol”; with A1-1261 (2 μM A1-1261, saturating N-terminal peptide), “≈ 242 kJ/mol”. The “Average T*, peptide-induced second fluorescence transition” value in data set [2] (setting [6]) came to 90.1±8.5 ° Celsius. The “Average ΔHT*‡, peptide-induced second fluorescence transition” value in data set [2] (setting [6]) was determined as 142 ± 37.1 kJ/mol. Moreover, the “Apparent TM extrapolated to a scan rate of 0° Celsius/min, primary transition” value in data set [2] (CD and fluorescence data) was 48 ° Celsius. Besides, the “Transition temperature T*, primary unfolding transition” value in data set [2] (average of CD and fluorescence) was determined as 64.5±0.9 ° Celsius. Moreover, the “Unfolding enthalpy ΔHT*‡, primary unfolding transition” value in data set [2] (average of CD and fluorescence) is 204 ± 10 kJ/mol.
With “QLPTGVLGEPSDAVPTVYEVTPPG (SEQ ID NO.:2) [scrambled peptide, reference compound]”, the “Effect of free peptide on platelet pause times on immobilized A1-1261” value in data set [3] is listed as “did not significantly change the pause times or translocation velocities”. Also, the “Effect of free peptide on platelet pause times or translocation velocities on immobilized A1-1238” value with platelet GP1bα [4] is “did not significantly change the pause times or translocation velocities”. The “Effect of peptide on unfolding enthalpy of A1-1261” value in the data set with A1-1261 (saturating peptide concentrations) is on record as “did not change the unfolding enthalpy”.

B1: scrambled peptide (QLPTGVLGEPSDAVPTVYEVTPPG) (peptide)
peptide: H-QLPTGVLGEPSDAVPTVYEVTPPG-OH
notes: Synthetic control peptide, said to have the same amino acid composition as the N-terminal peptide in scrambled order
Regarding B1, the binding result in data set [5] is on record as “no binding (tested: 300 µM)”.
